Measured values as given in US20180112194A1, “MUTANT HUMAN DEOXYCYTIDINE KINASE” (Centre National De La Recherche Scientifique, priority 2015, published 2018).
Read-outs that look alike come from different tables or passages of the source.

Assays:
Messa10K cells [1] = details: for efficiency of SIN vectors versus wt vectors / plateau of maximum mortality: gemcitabine; for efficiency of SIN vectors versus wt vectors: Messa 10K, data not shown
Protocol: Methods to measure sensitivity of a cell, such as a eukaryotic cell are known to the skilled in the art. In one example, cells were transduced with a vector comprising for example the mutant “M36” or the wild-type hdCK. Therefore, 1×10^6 cells were contacted with 1 ml of 1:5 diluted viral vectors rescued from the isolated clones. Transduced cells were selected, for example, by adding puromycin 24 h after transduction using 0.6 μg/ml to HEK-293T cells, 0.6 μg/ml to HEK-293T-CD4^+ cells, 0.5 μg/ml to Messa10K cells. The transduced cells were then for example seeded at 5,000 cells per well in a 96-well plate and grown overnight at 37° C. Typically, two rows were used for each population. 12 h after seeding, increasing concentrations of for example gemcitabine (0-400 nM or […]), or araC (0-10 mM) were added to each well and left in culture for further 72 h. Cell viability was measured by MTT test (CellTiter 96 Non-Radioactive Cell Proliferation Assay, Promega) and the number of living cells in each well was evaluated by measuring the OD at 570 nm. For each population, the fraction of living cells was calculated as OD570 concentration X Gem/OD570 concentration 0 Gem, to estimate the sensitivity of the population to the prodrug.
Tests of sensitivity to anticancer drugs. Cells were seeded at 5000 cells per well in a 96-well plate and grown overnight at 37° C. Two rows were used for each population. 12 h after seeding, increasing concentrations of Gemcitabine (0-400 nM or 0-100 μM), or AraC (0-10 mM) were added to each well and left in culture for further 72 h. Cell viability was measured by MTT test (CellTiter 96 Non-Radioactive Cell Proliferation Assay, Promega) and the number of living cells in each well was evaluated by measuring the OD at 570 nm. For each population, the fraction of alive cells was calculated as OD570 concentration X Gem/OD570 concentration 0 Gem, to estimate the sensitivity of the population to the prodrug. Tests of sensitivity to antiviral drugs. Viral vectors were generated by transfection of HEK-293T cells with 10 μg of pCMVAR8.91 plasmid, 5 μg of pHCMV-G plasmid, and 10 μg of genomic plasmid SDY-dCK (described in Rossolillo et al. 2012) encoding either for the wild type sequence of the human dCK or the M36 variant. Transduction was performed on 1×10^6 HEK-293T-CD4+ cells with viral vectors. Transduced cells were selected in the presence of 0.6 μg/ml of puromycin, added 24 h after transduction. 50 to 200 individual puromycin-resistant clones were pooled and expanded obtaining the polyclonal wt-dCK cell population (wtdCK-pcP, for wt dCK polyclonal population) and the […] cell population (M36-pcP). Vectors for challenging infection in the presence of antiviral drugs were generated by transfection with 10 μg of pTopo plasmid encoding for the HIV envelope ADA (ref, plus Hamoudi 2013), 5 μg of pHCMV-G plasmid, and 10 μg of genomic plasmid SDY-Luc, which is a variant of the pSDY plasmid encoding for the firefly luciferase. These viruses were used to transduce 1×10^6 HEK-293T-CD4+-wtdCK or HEK-293T-CD4+-M36 cells. Viral infection was then monitored 48 hours after transduction. For this the medium was removed, the cells were washed twice in PBS, lysed, centrifuged, and the supernatant was used to measure luciferase activity according to the manufacturer's protocol (Promega, Fitchburg, Wis., USA) with a Glomax luminometer (Promega, Fitchburg, Wis., USA). Western blot analyses. Messa10K cell lines expressing either the wt dCK or M36, both in the context of a proviral DNA with functional LTR or with an inactivated LTR were lysed in 1×RIPA buffer, and 30, 60, 120 μg of total protein (evaluated by Bradford) for each cell type and loaded on a 12% bis-tricine gel (Invitrogen).

human dCK [2] = molecular target: T1, human dCK (Homo sapiens, UniProt P27707, E171K/E247K/L249M); details: cited from earlier work
T1 construct: His tag (C, cleaved yes); made in house; host or cells: E. coli BL21 DE3 pLysE (pET14b)
T1 sequence (P27707 whole entry E171K/E247K/L249M): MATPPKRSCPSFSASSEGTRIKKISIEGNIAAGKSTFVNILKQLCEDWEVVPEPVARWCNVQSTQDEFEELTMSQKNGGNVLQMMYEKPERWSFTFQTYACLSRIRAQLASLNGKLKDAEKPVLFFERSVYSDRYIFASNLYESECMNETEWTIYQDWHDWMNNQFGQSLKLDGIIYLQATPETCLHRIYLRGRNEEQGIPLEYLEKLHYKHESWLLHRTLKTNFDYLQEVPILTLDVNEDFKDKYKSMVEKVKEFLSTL

Messa10K cells [3] = details: cited from earlier work
[4] = test system: HIV-derived vectors in HEK 293T/CD4+ cells; experiment: Tests of sensitivity to antiviral drugs: infection of hdCK-transduced cells by luciferase-encoding HIV-derived vectors; assay type: cell-based; details: luciferase 48 hours after infection
Protocol: (§1) Tests of sensitivity to anticancer drugs. […] Two rows were used for each population. […] Tests of sensitivity to antiviral drugs. […] Viral infection was then monitored 48 hours after transduction. […] Western blot analyses. […] Production and purification of recombinant dCK proteins. […] Phosphorylation tests in vitro. […] ATP was 4 mM. All experiments were performed in triplicate.
Firstly HEK 293T/CD4^+ cells were transduced at a low MOI of by the vector encoding the M36 variant and selection of the successfully transduced cells was performed using puromycin. The selected cell line was then transduced with lentiviral vectors, as described in Materials and Methods, encoding the luciferase gene and luciferase levels ere measured 48 hours after infection. A comparison with the level of luciferase detected in the parallel infection of control HEK 293T/CD4^+ cells expressing as a transgene the wt dCK gene was performed and the data plotted.

human dCK [5] = molecular target: T2, human dCK (Homo sapiens, UniProt P27707, E171K/E247K/L249M/S169N); experiment: Phosphorylation tests in vitro (NADH-based assay) with purified recombinant dCK proteins; assay type: biochemical; details: for Km compared to wt dCK / Kcat relative to wt dCK: FIG. 9A
T2 construct: His tag (C, cleaved yes); made in house; host or cells: E. coli BL21 DE3 pLysE (pET14b)
T2 sequence (P27707 whole entry S169N/E171K/E247K/L249M): as the sequence (P27707 whole entry E171K/E247K/L249M) above, with S169N counted along it
Protocol: (§2) Methods to qualitatively and/or quantitatively evaluate phosphorylation of a compound, such as a nucleoside compound, are known to the skilled in the art. In one example, the efficiency of phosphorylation of a substrate such as the natural substrate deoxycytidine, or the prodrugs gemcitabine and AraC, is measured for example with the purified wild-type hdCK and the mutant “M36” in typically a NADH-based assay as described in (Agarwal K C. et al. 1978 Methods Enzymol 51: 483-490). Accordingly, the enzymes are typically assayed at, for example, room temperature at a concentration of 0.45 μM for dC, 0.3 μM for Gemcitabine, and 0.3 for AraC. dC is typically used at concentrations of 5 to 50 μM, Gemcitabine at concentrations of 20 μM to 1 mM, and araC is typically used at concentrations of 20μM to 0.5 mM. ATP is used typically at 4 mM.
as §1
(§3) To characterise its biochemical properties M36 and, as a control, the wt dCK protein, were produced as recombinant, C-ter His tagged proteins in E. coli, purified and tested for their efficiency of phosphorylation in vitro. As it was the case for the G12 mutant (Rossolillo et al. 2012) also for M36 the substitutions present in the mutant led to a decrease in the Vmax of phosphorylation as function of the concentration of substrate, for both dC and for gemcitabine, but while the decrease is dramatic for the dC it is only modest for gemcitabine (FIGS. 8A-B).

human dCK [6] = experiment: as above; assay type: biochemical; details: FIG. 9B, G12 values from Rossolillo et al. 2012
Protocol: as §2, §1, §3

In the case of “G12: hdCK mutant comprising three mutations, Glu171Lys, Glu247Lys and Leu249Met, described in Rossolillo et al. 2012 and WO2011/058081”, the “efficiency of SIN vectors versus wt vectors” value (Messa10K cells [1]) is given as “more efficient”, the “ability to phosphorylate dC with respect to the wild type enzyme” value (human dCK [2]; substrate dC) is given as “almost complete loss of ability” and the “efficiency of phosphorylation of gemcitabine with respect to the wild type enzyme” value (human dCK [2]; substrate gemcitabine) is given as “almost unaltered”. For the same substance, the sensitization to gemcitabine (Messa10K cells [3]; cells originally resistant to gemcitabine (Messa10K)) was 300 fold and the “sensitization effect relative to the one induced with the wild-type enzyme” value (Messa10K cells [3]; gemcitabine, Messa10K) was 60 times.

With “M36: mutant human deoxycytidine kinase (hdCK) with mutations S169N, E171K, E247K and L249M; delivered as lentiviral transgene or recombinant protein” the “lower infectivity versus cells expressing wt dCK” value ([4]; 3TC, FIG. 6) was ~2 fold, the “resistance to infection versus cells expressing wt dCK” value ([4]; ddC, FIG. 5) was “no significant increase in resistance” and the “Km compared to wt dCK” value (human dCK [5]; natural substrate dC) was “reversed”. The “reduction of the Vmax of phosphorylation compared to wt dCK” value (human dCK [5]; substrate AraC, FIG. 8C) was “very modest reduction”, the “Kcat relative to wt dCK” value (human dCK [5]; substrate AraC) was “approximately 50%” and the “Km compared to wt dCK” value (human dCK [5]; substrate AraC) was “increased”. For the same substance, the “decrease in the Vmax of phosphorylation compared to wt dCK” value (human dCK [5]; substrate dC, FIG. 8A) was “dramatic”, the “Kcat relative to wt dCK” value (human dCK [5]; substrate dC) was “approximately 50%” and the “decrease in the Vmax of phosphorylation compared to wt dCK” value (human dCK [5]; substrate gemcitabine, FIG. 8B) was “only modest”. The “Kcat relative to wt dCK” value (human dCK [5]; substrate gemcitabine) was “approximately 50%”, the “Km compared to wt dCK” value (human dCK [5]; substrate gemcitabine) was “increased” and the “increase in Kcat M36 vs G12, factor” value (human dCK [6]; natural substrate dC) was 9.5. For the same substance, the “increase in Km M36 vs G12, factor” value (human dCK [6]; natural substrate dC) was 3.5, the “ratio of Kcat M36 vs G12” value (human dCK [6]; substrate gemcitabine) was 1 and the “ratio of Km M36 vs G12” value (human dCK [6]; substrate gemcitabine) was 1. The “sensitisation to AraC with respect to control cells expressing exogenous wt dCK” value (Messa10K cells [1]; AraC, FIG. 7B) was “strong sensitisation”, the “sensitisation phenotype to gemcitabine compared to G12” value (Messa10K cells [1]; Messa10K, FIG. 1 and 2) was “further improved sensitisation phenotype” and the sensitization to gemcitabine (Messa10K cells [1]; cells originally resistant to gemcitabine) was 900 fold. For the same substance, the “sensitization of cells to cytarabine (AraC), factor” value (Messa10K cells [1]; cytarabine (AraC)) was 10,000, the “sensitisation of Messa 10K cells to fludarabine” value (Messa10K cells [1]; fludarabine, FIG. 7A) was “no significant sensitisation” and the “efficiency of SIN vectors versus wt vectors” value (Messa10K cells [1]) was “more efficient”. For the same substance, the “plateau of maximum mortality” value (Messa10K cells [1]; SIN vector (inactivated LTR)) was 80% and the “plateau of maximum mortality” value (Messa10K cells [1]; wt LTR vector) was 60%.
